# Results taken from publication doi:10.1101/2024.03.17.584836 (bioRxiv, 2024).
# Several values for one entry are separate records, joined by “and”; a condition that tells them apart may be missing. Equal values may be shown once. Read-outs that look alike come from different tables or passages of the source.
# B1: Nlg1-HaloTag-AF488 (purified dimeric Nlg1 C-terminally fused to Halo-tag, conjugated to AF488) (other)
# chain: QKLDDVDPLVTTNFGKIRGIKKELNNEILGPVIQFLGVPYAAPPTGEHRFQPPEPPSPWSDIRNATQFAPVCPQNIIDGRLPEVMLPVWFTNNLDVVSSYVQDQSEDCLYLNIYVPTEDVKRISKECARKPGKKICRKGDIRDSGGPKPVMVYIHGGSYMEGTGNLYDGSVLASYGNVIVITVNYRLGVLGFLSTGDQAAKGNYGLLDLIQALRWTSENIGFFGGDPLRITVFGSGAGGSCVNLLTLSHYSEGNRWSNSTKGLFQRAIAQSGTALSSWAVSFQPAKYARILATKVGCNVSDTVELVECLQKKPYKELVDQDVQPARYHIAFGPVIDGDVIPDDPQILMEQGEFLNYDIMLGVNQGEGLKFVENIVDSDDGVSASDFDFAVSNFVDNLYGYPEGKDVLRETIKFMYTDWADRHNPETRRKTLLALFTDHQWVAPAVATADLHSNFGSPTYFYAFYHHCQTDQVPAWADAAHGDEVPYVLGIPMIGPTELFPCNFSKNDVMLSAVVMTYWTNFAKTGDPNQPVPQDTKFIHTKPNRFEEVAWTRYSQKDQLYLHIGLKPRVKEHYRANKVNLWLELVPHLHNLNDISQYTSTTTKVPSTDITLRPTRKNSTPVTSAFPTAKQDDPKQQPSPFSVDQRDYSTELS
# modifications: HaloTag-Alexa488 ligand (Promega G1002) coupled to the HaloTag
# Key:
# [1] = biological target: Nrx1β-Fc (neurexin-1β C-terminally fused to human Fc) (UniProt Q63373)
# [2] = biological target: Nlg1^E584A/L585A-GFP, in HEK cell lysate (UniProt Q99K10); experiment: single molecule pull-down with counting of photobleaching steps
# [3] = biological target: Nrx1β-Fc (neurexin-1β C-terminally fused to human Fc) (UniProt Q63373); remark: listed apart in the source
# [4] = biological target: Nrx1β-Fc (neurexin-1β C-terminally fused to human Fc) (UniProt Q63373); remark: listed apart in the source
# [5] = biological target: Nrx1β-Fc (neurexin-1β C-terminally fused to human Fc) (UniProt Q63373); remark: listed apart in the source
# [6] = biological target: Nlg1-GFP, wild type, in HEK cell lysate (UniProt Q99K10); experiment: single molecule pull-down with counting of photobleaching steps
# [7] = biological target: Nrx1β-Fc (neurexin-1β C-terminally fused to human Fc) (UniProt Q63373); experiment: FRAP of soluble fluorescent protein bound to ligand-coated micropatterns
molecule,measurement,setting,value
"HA-Nlg1^E584A/L585A-GFP (-21), expressed in COS-7 cells (from UniProt Q99K10 46-843) (receptor)",enrichment level E (fluorescence on ligand stripes / PEG lines),[1],2.5
"Nlg1^E584A/L585A-GFP, in HEK cell lysate (from UniProt Q99K10 46-843) (receptor)",percent in a monomeric form (1 photobleaching step),[2],55%
"AP-Nlg1 (AP-tagged Nlg1, full length), expressed in COS-7 cells (from UniProt Q62765 46-843) (receptor)",koff of the reaction part of the PSD-95-GFP FRAP curves,[3],0.005 s⁻¹ and 0.008 s⁻¹
"HA-Nlg1-GFP (-21), wild type, expressed in COS-7 cells (from UniProt Q99K10 46-843) (receptor)",enrichment level E (fluorescence on ligand stripes / PEG lines),[4],2.3
same,koff,[5],0.004 s⁻¹
"Nlg1-GFP, wild type, in HEK cell lysate (from UniProt Q99K10 46-843) (receptor)",stoichiometry N,[6],2
B1,koff,[7],~0.0015 s⁻¹
